The target in the experiment is T1, Flag-BUBR1 (human, UniProt O60566 1-1050).
T1 construct: also called Flag beads-BUBR1; source: eluted with 3×Flag peptide for MST, left on Flag beads for the pull-down
The experiment in a line: pull-down; 10 μg purified His-UPCP incubated with Flag beads, Flag beads-BUBR1 or Flag beads-PTBP1 for 16 h at 4 °C; beads washed three times with PBS. The following applies: both partners purified.

T1 sequence (O60566 whole entry): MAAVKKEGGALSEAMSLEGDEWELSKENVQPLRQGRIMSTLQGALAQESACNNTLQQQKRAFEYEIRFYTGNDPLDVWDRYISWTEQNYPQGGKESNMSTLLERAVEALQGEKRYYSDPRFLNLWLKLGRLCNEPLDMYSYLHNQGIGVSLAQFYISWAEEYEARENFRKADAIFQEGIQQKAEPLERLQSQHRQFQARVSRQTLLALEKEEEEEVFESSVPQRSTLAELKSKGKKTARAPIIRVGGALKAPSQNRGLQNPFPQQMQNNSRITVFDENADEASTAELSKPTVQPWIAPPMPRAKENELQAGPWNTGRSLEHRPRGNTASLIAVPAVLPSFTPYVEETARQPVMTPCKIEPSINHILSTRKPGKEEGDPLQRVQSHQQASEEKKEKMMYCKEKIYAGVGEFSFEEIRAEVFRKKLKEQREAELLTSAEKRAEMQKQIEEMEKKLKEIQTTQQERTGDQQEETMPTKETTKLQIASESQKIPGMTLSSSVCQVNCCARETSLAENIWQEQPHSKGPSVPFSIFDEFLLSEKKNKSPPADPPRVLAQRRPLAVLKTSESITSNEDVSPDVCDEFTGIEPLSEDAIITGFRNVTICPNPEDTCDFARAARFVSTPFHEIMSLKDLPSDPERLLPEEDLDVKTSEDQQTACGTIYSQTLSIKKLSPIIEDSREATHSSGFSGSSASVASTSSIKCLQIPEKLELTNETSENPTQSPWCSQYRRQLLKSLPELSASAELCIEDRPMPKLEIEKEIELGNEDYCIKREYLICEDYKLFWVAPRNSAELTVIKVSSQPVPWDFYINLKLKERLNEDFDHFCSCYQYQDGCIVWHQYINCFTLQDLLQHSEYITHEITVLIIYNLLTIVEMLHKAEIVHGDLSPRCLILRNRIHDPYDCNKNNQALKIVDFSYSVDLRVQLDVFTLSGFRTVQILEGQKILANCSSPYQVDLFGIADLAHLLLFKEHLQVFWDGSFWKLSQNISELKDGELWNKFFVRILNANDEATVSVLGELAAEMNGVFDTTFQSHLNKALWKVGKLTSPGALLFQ

B1: His-UPCP (peptide)
chain: YGRKKRRQRRRYNLRSRTVLCGTCGQPADKASASGSGAQSPQNCSIM
notes: also called His-tagged UPCP
Take B1: the binding result was “binds”.
